Assay results as given in publication PMC10663500, “High-throughput analysis system of interaction kinetics for data-driven antibody design” (Scientific Reports, 2023).

B1: toripalimab Fab H.F64A (Fab, V domains shown)
VH: QGQLVQSGAEVKKPGASVKVSCKASGYTFTDYEMHWVRQAPIHGLEWIGVIESETGGTAYNQKAKGRVTITADKSTSTAYMELSSLRSEDTAVYYCAREGITTVATTYYWYFDVWGQGTTVTVSS
VL: DVVMTQSPLSLPVTLGQPASISCRSSQSIVHSNGNTYLEWYLQKPGQSPQLLIYKVSNRFSGVPDRFSGSGSGTDFTLKISRVEAEDVGVYYCFQGSHVPLTFGQGTKLEIK
notes: heavy chain of Sm3 with this change; numbers count from the chain's first residue; as the light chain of Sm3; source: Brevibacillus, culture supernatant (ammonium sulfate precipitate); not shown: 6xHis, C-terminal, kept; 6xHN, C-terminal, kept
B2: toripalimab Fab H.F64Y (Fab, V domains shown)
VH: QGQLVQSGAEVKKPGASVKVSCKASGYTFTDYEMHWVRQAPIHGLEWIGVIESETGGTAYNQKYKGRVTITADKSTSTAYMELSSLRSEDTAVYYCAREGITTVATTYYWYFDVWGQGTTVTVSS
VL: DVVMTQSPLSLPVTLGQPASISCRSSQSIVHSNGNTYLEWYLQKPGQSPQLLIYKVSNRFSGVPDRFSGSGSGTDFTLKISRVEAEDVGVYYCFQGSHVPLTFGQGTKLEIK
notes: as for B1
B3: toripalimab Fab H.K65A (Fab, V domains shown)
VH: QGQLVQSGAEVKKPGASVKVSCKASGYTFTDYEMHWVRQAPIHGLEWIGVIESETGGTAYNQKFAGRVTITADKSTSTAYMELSSLRSEDTAVYYCAREGITTVATTYYWYFDVWGQGTTVTVSS
VL: DVVMTQSPLSLPVTLGQPASISCRSSQSIVHSNGNTYLEWYLQKPGQSPQLLIYKVSNRFSGVPDRFSGSGSGTDFTLKISRVEAEDVGVYYCFQGSHVPLTFGQGTKLEIK
notes: as for B1
B4: toripalimab Fab H.K65Y (Fab, V domains shown)
VH: QGQLVQSGAEVKKPGASVKVSCKASGYTFTDYEMHWVRQAPIHGLEWIGVIESETGGTAYNQKFYGRVTITADKSTSTAYMELSSLRSEDTAVYYCAREGITTVATTYYWYFDVWGQGTTVTVSS
VL: DVVMTQSPLSLPVTLGQPASISCRSSQSIVHSNGNTYLEWYLQKPGQSPQLLIYKVSNRFSGVPDRFSGSGSGTDFTLKISRVEAEDVGVYYCFQGSHVPLTFGQGTKLEIK
notes: as for B1
B5: toripalimab Fab H.G66A (Fab, V domains shown)
VH: QGQLVQSGAEVKKPGASVKVSCKASGYTFTDYEMHWVRQAPIHGLEWIGVIESETGGTAYNQKFKARVTITADKSTSTAYMELSSLRSEDTAVYYCAREGITTVATTYYWYFDVWGQGTTVTVSS
VL: DVVMTQSPLSLPVTLGQPASISCRSSQSIVHSNGNTYLEWYLQKPGQSPQLLIYKVSNRFSGVPDRFSGSGSGTDFTLKISRVEAEDVGVYYCFQGSHVPLTFGQGTKLEIK
notes: as for B1
B6: toripalimab Fab H.G66Y (Fab, V domains shown)
VH: QGQLVQSGAEVKKPGASVKVSCKASGYTFTDYEMHWVRQAPIHGLEWIGVIESETGGTAYNQKFKYRVTITADKSTSTAYMELSSLRSEDTAVYYCAREGITTVATTYYWYFDVWGQGTTVTVSS
VL: DVVMTQSPLSLPVTLGQPASISCRSSQSIVHSNGNTYLEWYLQKPGQSPQLLIYKVSNRFSGVPDRFSGSGSGTDFTLKISRVEAEDVGVYYCFQGSHVPLTFGQGTKLEIK
notes: as for B1
B7: toripalimab Fab H.G100A (Fab, V domains shown)
VH: QGQLVQSGAEVKKPGASVKVSCKASGYTFTDYEMHWVRQAPIHGLEWIGVIESETGGTAYNQKFKGRVTITADKSTSTAYMELSSLRSEDTAVYYCAREAITTVATTYYWYFDVWGQGTTVTVSS
VL: DVVMTQSPLSLPVTLGQPASISCRSSQSIVHSNGNTYLEWYLQKPGQSPQLLIYKVSNRFSGVPDRFSGSGSGTDFTLKISRVEAEDVGVYYCFQGSHVPLTFGQGTKLEIK
notes: as for B1
B8: toripalimab Fab H.E33A (Fab, V domains shown)
VH: QGQLVQSGAEVKKPGASVKVSCKASGYTFTDYAMHWVRQAPIHGLEWIGVIESETGGTAYNQKFKGRVTITADKSTSTAYMELSSLRSEDTAVYYCAREGITTVATTYYWYFDVWGQGTTVTVSS
VL: DVVMTQSPLSLPVTLGQPASISCRSSQSIVHSNGNTYLEWYLQKPGQSPQLLIYKVSNRFSGVPDRFSGSGSGTDFTLKISRVEAEDVGVYYCFQGSHVPLTFGQGTKLEIK
notes: as for B1
B9: toripalimab Fab H.V104A (Fab, V domains shown)
VH: QGQLVQSGAEVKKPGASVKVSCKASGYTFTDYEMHWVRQAPIHGLEWIGVIESETGGTAYNQKFKGRVTITADKSTSTAYMELSSLRSEDTAVYYCAREGITTAATTYYWYFDVWGQGTTVTVSS
VL: DVVMTQSPLSLPVTLGQPASISCRSSQSIVHSNGNTYLEWYLQKPGQSPQLLIYKVSNRFSGVPDRFSGSGSGTDFTLKISRVEAEDVGVYYCFQGSHVPLTFGQGTKLEIK
notes: as for B1
B10: toripalimab Fab H.V104Y (Fab, V domains shown)
VH: QGQLVQSGAEVKKPGASVKVSCKASGYTFTDYEMHWVRQAPIHGLEWIGVIESETGGTAYNQKFKGRVTITADKSTSTAYMELSSLRSEDTAVYYCAREGITTYATTYYWYFDVWGQGTTVTVSS
VL: DVVMTQSPLSLPVTLGQPASISCRSSQSIVHSNGNTYLEWYLQKPGQSPQLLIYKVSNRFSGVPDRFSGSGSGTDFTLKISRVEAEDVGVYYCFQGSHVPLTFGQGTKLEIK
notes: as for B1
B11: toripalimab Fab H.A105Y (Fab, V domains shown)
VH: QGQLVQSGAEVKKPGASVKVSCKASGYTFTDYEMHWVRQAPIHGLEWIGVIESETGGTAYNQKFKGRVTITADKSTSTAYMELSSLRSEDTAVYYCAREGITTVYTTYYWYFDVWGQGTTVTVSS
VL: DVVMTQSPLSLPVTLGQPASISCRSSQSIVHSNGNTYLEWYLQKPGQSPQLLIYKVSNRFSGVPDRFSGSGSGTDFTLKISRVEAEDVGVYYCFQGSHVPLTFGQGTKLEIK
notes: as for B1
B12: toripalimab Fab H.T106A (Fab, V domains shown)
VH: QGQLVQSGAEVKKPGASVKVSCKASGYTFTDYEMHWVRQAPIHGLEWIGVIESETGGTAYNQKFKGRVTITADKSTSTAYMELSSLRSEDTAVYYCAREGITTVAATYYWYFDVWGQGTTVTVSS
VL: DVVMTQSPLSLPVTLGQPASISCRSSQSIVHSNGNTYLEWYLQKPGQSPQLLIYKVSNRFSGVPDRFSGSGSGTDFTLKISRVEAEDVGVYYCFQGSHVPLTFGQGTKLEIK
notes: as for B1
B13: toripalimab Fab H.T106Y (Fab, V domains shown)
VH: QGQLVQSGAEVKKPGASVKVSCKASGYTFTDYEMHWVRQAPIHGLEWIGVIESETGGTAYNQKFKGRVTITADKSTSTAYMELSSLRSEDTAVYYCAREGITTVAYTYYWYFDVWGQGTTVTVSS
VL: DVVMTQSPLSLPVTLGQPASISCRSSQSIVHSNGNTYLEWYLQKPGQSPQLLIYKVSNRFSGVPDRFSGSGSGTDFTLKISRVEAEDVGVYYCFQGSHVPLTFGQGTKLEIK
notes: as for B1
B14: toripalimab Fab H.T107A (Fab, V domains shown)
VH: QGQLVQSGAEVKKPGASVKVSCKASGYTFTDYEMHWVRQAPIHGLEWIGVIESETGGTAYNQKFKGRVTITADKSTSTAYMELSSLRSEDTAVYYCAREGITTVATAYYWYFDVWGQGTTVTVSS
VL: DVVMTQSPLSLPVTLGQPASISCRSSQSIVHSNGNTYLEWYLQKPGQSPQLLIYKVSNRFSGVPDRFSGSGSGTDFTLKISRVEAEDVGVYYCFQGSHVPLTFGQGTKLEIK
notes: as for B1
B15: toripalimab Fab H.T107Y (Fab, V domains shown)
VH: QGQLVQSGAEVKKPGASVKVSCKASGYTFTDYEMHWVRQAPIHGLEWIGVIESETGGTAYNQKFKGRVTITADKSTSTAYMELSSLRSEDTAVYYCAREGITTVATYYYWYFDVWGQGTTVTVSS
VL: DVVMTQSPLSLPVTLGQPASISCRSSQSIVHSNGNTYLEWYLQKPGQSPQLLIYKVSNRFSGVPDRFSGSGSGTDFTLKISRVEAEDVGVYYCFQGSHVPLTFGQGTKLEIK
notes: as for B1

Experiments:
[1] = molecular target: T1, human programmed cell death protein 1 (hPD-1) C93S (aa 24-167) (Homo sapiens, UniProt Q15116, C93S); experiment: SPR; Carterra LSA; Fab from the ammonium sulfate precipitate of the culture supernatant immobilised on a NiHC200M chip; hPD-1 (1-1024 nM) or mPD-1-Fc (4-1024 nM) as analyte, fourfold dilution series, no regeneration; HBS-EP pH 7.4, 25 °C; medians over the spots of a construct, KD = koff/kon; conditions: one partner purified
T1 construct: made as a fusion with a TEV site and human Fc; the Fc was cut off with TEV protease; source: Expi293F, purified (Protein A, TEV cleavage of Fc, SEC; monomer fractions); not shown: Fc (human), C-terminal, cleaved
T1 sequence (Q15116 24-167 C93S): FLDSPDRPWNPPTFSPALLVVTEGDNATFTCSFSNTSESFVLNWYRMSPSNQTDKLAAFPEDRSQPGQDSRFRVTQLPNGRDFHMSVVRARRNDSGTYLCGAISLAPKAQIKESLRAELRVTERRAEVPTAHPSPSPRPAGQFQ
Method in brief: (§1)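 Fabs, ammonium sulfate-precipitated from Brevibacillus supernatants and redissolved in HBS-EP, were captured in duplicate on a NiHC200M chip on a Carterra LSA at 25 °C. Fourfold series of human PD-1 (1–1024 nM) or mouse PD-1-Fc (4–1024 nM) were run without regeneration, with association for 10 min and dissociation for 5 min. Rates were fitted with the kdka model, choosing the better of slow- or fast-dissociation settings, and unconfirmed binders were given kon 10^3 […] and koff 10^−2 s^−1. The dissociation constant KD is koff/kon based on per-construct medians.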

[2] = molecular target: T2, mouse programmed cell death protein 1 Fc fusion protein (mPD-1-Fc), mPD-1 C60S (aa 25-167) (Mus musculus, UniProt Q02242, stabilised); experiment: as above; conditions: one partner purified
T2 construct: not cleaved; source: Expi293F, purified (Protein A, SEC; dimeric fraction); not shown: Fc (human), C-terminal, kept
Method in brief: as §1

| Binder | Kd [1] [µM] | koff [1] [s⁻¹] | kon [1] [M⁻¹ s⁻¹] | Kd [2] [µM] | koff [2] [s⁻¹] | kon [2] [M⁻¹ s⁻¹] |
| --- | --- | --- | --- | --- | --- | --- |
| B1 | < 0.0014 | < 1e-05 | 7170 | 0.0597 | 0.00193 | 32400 |
| B2 | 0.00117 | 3.98e-05 | 34200 | 0.0363 | 0.00224 | 61600 |
| B3 | < 0.0015 | < 1e-05 | 6670 | 0.257 | 0.00911 | 35400 |
| B4 | 0.00114 | 1.86e-05 | 16300 | 0.299 | 0.012 | 40300 |
| B5 | < 0.00156 | < 1e-05 | 6410 | 0.223 | 0.00674 | 30200 |
| B6 | < 0.00085 | < 1e-05 | 11800 | 0.393 | 0.0111 | 28100 |
| B7 | 0.000593 | 1.42e-05 | 23900 | 0.464 | 0.0353 | 76100 |
| B8 | 0.00137 | 1.31e-05 | 9540 | 0.103 | 0.00372 | 36200 |
| B9 | 0.00451 | 8.98e-05 | 19900 | 0.0815 | 0.00354 | 43400 |
| B10 | 0.00117 | 1.81e-05 | 15500 | 0.0962 | 0.00366 | 38000 |
| B11 | < 0.000492 | < 1e-05 | 20300 | 0.0955 | 0.00349 | 36500 |
| B12 | 0.000743 | 1.56e-05 | 21000 | 0.107 | 0.00423 | 39700 |
| B13 | 0.000833 | 1.75e-05 | 21000 | 0.14 | 0.00601 | 43000 |
| B14 | < 0.00153 | < 1e-05 | 6520 | 0.232 | 0.00703 | 30300 |
| B15 | < 0.000315 | < 1e-05 | 31700 | 0.137 | 0.00432 | 31600 |
